Test system: MS2 coat protein
Experiment: apparent KD of MS2 coat protein; designed switch direction (-1 OFF switch, 1 ON switch): -1; higher = weaker reporter binding
Summary of the method: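 The apparent KD reported per design is the median over clusters of curve fits to normalised cluster fluorescence. The RNA switches were transcribed on Illumina chips by stalled E. coli RNA polymerase. SNAP-549-labelled MS2 coat protein was titrated from 0.7 or 1.5 nM, doubling up to 3 µM, in Tris-HCl pH 7.5 buffer containing KCl, MgCl2, BSA, DTT, tRNA and Tween-20, with no input, 200 uM small-molecule ligand, or an oligonucleotide input.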

[1] = input ligand: microRNA oligo, concentration not stated
[2] = Eterna round: R95, input ligand: microRNA oligo, concentration not stated
[3] = Eterna round: R95, input ligand: FMN 200 uM
[4] = Eterna round: R95, input ligand: none

Row | Sequence | apparent KD of MS2 coat protein (input ligand: FMN 200 uM) [nM] | apparent KD of MS2 coat protein (input ligand: none) [nM] | apparent KD of MS2 coat protein [1] [nM] | apparent KD of MS2 coat protein [2] [nM] | apparent KD of MS2 coat protein [3] [nM] | apparent KD of MS2 coat protein [4] [nM]
1 | GUUGACGGAGGAUAUACAGCCGAGAUCCACCGUGUGGAGGAACAUGAGGAUCACCCAUGUAGAAGGCUGCAGUA [Eternabot (L2) Solution 92] (Eterna round: R97, puzzle: Exclusion 2) | 16 | 17.1 |  |  |  | 
2 | GUUGCAAGCACUUACGUUGACAUGAGGAUCACCCAUGUAGCAUCUCCGCCAAUCUAAGCCGUUGUCUUAUAUACCUU [Eternabot (L2) Solution 3] (Eterna round: R97, puzzle: Sensor, turn-off variant 1) | 34.5 | 51.7 |  |  |  | 
3 | GUUGGUAAGUCAGGAUAUCCCUGUAAUGGCAGCGGAGAAGGGACAUGAGGAUCACCCAUGUGAACCUCCGGCGGGUAAACCCGC [Issoange] (Eterna round: R96, puzzle: Exclusion NG 1) | 103 | 37.1 | 20.5 |  |  | 
4 | GUUGUUUAUGUAGGAUAUGCCUGGCGAGCCUAAGCAGAAGGACAUGAGGAUCACCCAUGUAUUGCGGUCUGCGUUCAGAUCGCU [salish99_ExNG1_r4_018] (Eterna round: R96, puzzle: Exclusion NG 1) | 38.3 | 18.9 | 9.94 |  |  | 
5 | GUUGUUUAUGUAGGAUAUGCCUGGCGUGCCUAUGCAGAAGGACAUGAGGAUCACCCAUGUAUUGCGGUCUGCGUUCAGAUCGCU [salish99_ExNG1_r4_020] (Eterna round: R96, puzzle: Exclusion NG 1) | 23.2 | 22 | 15.8 |  |  | 
6 | GUUUCGAGACGGAGAUCCGACAUGAGGAUCACCCAUGUCUCCCAAGCUUUUUGCUCGUCUUAUACUCCUCUGUUCUC [Elimod 47 - Jieux - Sensor, turn-off variant 1] (Eterna round: R97, puzzle: Sensor, turn-off variant 1) | 18 | 19.4 |  |  |  | 
7 | GUUUGACAUGAGGAUCACCCAUGUAAGGAUAUACGAGUAGCUACUAGGUAGUUAGUAUGUAGAAGGUACGUGUU [EX1 #65] (Eterna round: R97, puzzle: Exclusion 1) | 50.4 | 40.3 |  |  |  | 
8 | GUUUUCAGACGGAGAUCCUACAUGAGGAUCACCCAUGUCUCACAAGCUUUUUGCUCGUCUUAUUCUCCUCUGUUCUC [Elimod 41 - Jieux - Sensor, turn-off variant 1] (Eterna round: R97, puzzle: Sensor, turn-off variant 1) | 23.8 | 26.1 |  |  |  | 
9 | GUUUUCAGACGGAGAUCCUACAUGAGGAUCACCCAUGUCUCUCUUGCUAAUUGCUCGUCUUUUCCUCCUCUGUUCUC [Elimod 35 - Jieux - Sensor, turn-off variant 1] (Eterna round: R97, puzzle: Sensor, turn-off variant 1) | 457 | 567 |  |  |  | 
10 | UAAAACGCAGAGGAUAUAUCAGAUCAAAGCUGCAUAGAAGGCUGCACAUGAGGAUCACCCAUGUGGUCUUUAAU [Mat - Exclusion 6 - JL Mod - D1] (Eterna round: R97, puzzle: Exclusion 6) | 206 | 20.6 |  |  |  | 
11 | UAAAAGCUAGGAUAUACAUGAGGAUCACCCAUGUCACGGGUGCCACACCGAAAGGUGCGUAGAAGGAGCCCAAA [Orrecedi] (puzzle: Exclusion 3) |  |  |  | 38.4 |  | 
12 | UAAAAGCUAGGAUAUGCAAGGUCCGACAUGAGGAUCACCCAUGUGCUCCUAUGCACAUUUGCAGAAGGAGCGAAAA [EX5 A.6] (Eterna round: R97, puzzle: Exclusion 5) | 537 | 83 |  |  |  | 
13 | UAAAAGGAUGUCAGGAUAUGCGCUUGGGAUCAAGAGCAGAAGGGACAUGAGGAUCACCCAUGUAACGGUGCGAA [Oraninus] (puzzle: Brourd's mod of Exclusion 4) |  |  |  | 33.9 | 36.4 | 44.5
14 | UAAAAGGUAGGAUAUACGAAAAAAAAGGGUAGAAAAAAAACACAUGAGGAUCACCCAUGUAGAAGGACCAAAAC [salish99_ex2_r3_047] (puzzle: Exclusion 2) |  |  |  | 33.2 | 103 | 30.3
15 | UAAAAUCUAGGAUAUACAUGAGGAUCACCCAUGUUGCUCCCAGCUCGUGACCUCCAAUGUAGAAGGAGAACGAU [EX3 A.15] (Eterna round: R97, puzzle: Exclusion 3) | 19.8 | 20.1 |  |  |  | 
16 | UAAACAAGCUAAAGAUCCCACAUGAGGAUCACCCAUGUGCUCGUCUUGUAACGUACUGUGACGAAAGUCACGGUACG [JL TOV1 3.11] (Eterna round: R97, puzzle: Sensor, turn-off variant 1) | 19.1 | 22.8 |  |  |  | 

Row | Sequence | apparent KD of MS2 coat protein (input ligand: FMN 200 uM) [nM] | apparent KD of MS2 coat protein (input ligand: none) [nM] | apparent KD of MS2 coat protein [1] [nM] | apparent KD of MS2 coat protein [2] [nM] | apparent KD of MS2 coat protein [3] [nM] | apparent KD of MS2 coat protein [4] [nM]
17 | UAAACAAGCUAAAGAUUCUACAUGAGGAUCACCCAUGUGCUCGUCUUAUAAGGUACUGUGACGAAAGUCACGGUACC [JL TOV1 3.07] (Eterna round: R97, puzzle: Sensor, turn-off variant 1) | 17.9 | 21.1 |  |  |  | 
18 | UAAACCAGAGGAUAUGCGAAUAAAUAAAACUUUUUUUUUUAACAUGAGGAUCACCCAUGUAGAAGGCUGCAAUU [Ex2 #32] (Eterna round: R97, puzzle: Exclusion 2) | 30.4 | 30 |  |  |  | 
19 | UAAAGCGUAGGAUAUACAUUCAUGAGCACCACCCGGUGCACACAUGAGGAUCACCCAUGUAGAAGGAUGCUACG [Eternabot (Original) Solution 49] (Eterna round: R97, puzzle: Exclusion 2) | 14.6 | 17.6 |  |  |  | 
20 | UAAAGUAUAUAGGAUAUCUAGCUGGAAACAGCUAGAGAAGGAUGUACAUGAGGAUCACCCAUGUAAAUCGUGAA [Ex6/13-A1] (Eterna round: R97, puzzle: Exclusion 6) | 16.2 | 13 |  |  |  | 
21 | UAAAUAAAUGUAGGAUAUCUGCACGAUUAGUGCAGAGAAGGACAUGAGGAUCACCCAUGUAUAGUAGCUUCGGCUACAAAUAAU [ENG1-C1] (Eterna round: R96, puzzle: Exclusion NG 1) | 89.9 | 71.2 | 51.9 |  |  | 
22 | UAAAUGUCAGGAUAUUGUUAAUUUAGUUGUUUGUAUUAGUUCGAGAAGGGACAUGAGGAUCACCCAUGUUAAAU [Ex4 #53] (Eterna round: R97, puzzle: Exclusion 4) | 45.9 | 30.4 |  |  |  | 
23 | UAACAAGCUUAAAGAUCCCACAUGAGGAUCACCCAUGUGCUCGUCUUAUAACGUACUGUGACGAAAGUCACGGUACG [JL TOV1 3.13] (Eterna round: R97, puzzle: Sensor, turn-off variant 1) | 29.2 | 26.3 |  |  |  | 
24 | UAACUUAUUGUAAGGAUAUCGGUCCGAAAGGACAACGAGAAGGUACAUGAGGAUCACCCAUGUGAAAUAAGAAU [Mod of Zala 21 - Jieux - Brourd's Mod of Exclusion 4] (Eterna round: R97, puzzle: Brourd's mod of Exclusion 4) | 261 | 29.4 |  |  |  | 
25 | UAAGGGUGCGUAGGAUAUCGCGGCCGAAUAAAGCGAGAAGGACGCCCUAAUGGGUCGUCCAACAUGAGGAUCACCCAUGUAUAC [Uslaarus] (Eterna round: R96, puzzle: Exclusion NG 1) | 55.4 | 41.5 | 31.2 |  |  | 
26 | UAAUAAAGGGUAGGAUAUGCCGAACAAACACGAGCAGAAGGACCAAAACACUACUUGAGGAUCACCCAAGUGUCCUUCCGUGGU [Mutated MS2 EX1.6] (Eterna round: R96, puzzle: Exclusion NG 1) | 52.4 | 17.2 | 13.2 |  |  | 
27 | UAAUAACAAGCGAGAUCCUACAUGAGGAUCACCCAUGUGCUCGUCUUAUAAGGUACUGUGACGAUAGUCACGGUACC [Mat - Sensor, turn-off var - Eli Mod - D96] (Eterna round: R97, puzzle: Sensor, turn-off variant 1) | 17.8 | 18.2 |  |  |  | 
28 | UAAUACAAGCAAAGAUCCUACAUGAGGAUCACCCAUGUGCUCGUCUUGUAAAGUACUAUCACGAAAGUGAUAGUACA [Mat - Sensor v3 - turn-off var 1 - Eli Mod - D77] (puzzle: Sensor v3, turn-off variant 1) |  |  |  | 17.1 | 41.2 | 114
29 | UAAUGCAGGUAAAGAUUCUACAUGAGGAUCACCCAUGUGCUCGUCUUAUAAAGUACUAUCACGAAAGUGAUAGUACA [Mat - Sensor v3 - turn-off var 1 - Eli Mod - D101] (puzzle: Sensor v3, turn-off variant 1) |  |  |  | 220 | 27.6 | 24.8
30 | UAAUGGACAGGAUAUACAUGAGGAUCACCCAUGUCGGCCGGUCCUGUUCUAAGAGCGAGUAGAAGGGUCACGUU [Eternabot (L1) Solution 4] (Eterna round: R97, puzzle: Exclusion 3) | 11.6 | 11.9 |  |  |  | 
31 | UAAUUGUGAGGAUAUUCGUUUAACACGGAGACGUGUUGAACGGAGAAGGCACAUGAGGAUCACCCAUGUUCCUU [Mat - Exclusion 4 - JL Mod - D17] (Eterna round: R97, puzzle: Exclusion 4) | 89.9 | 19.3 |  |  |  | 
32 | UAAUUUUUAGUAAGGAUAUCGGUCCCAAGGGACAACGAGAAGGUACAUGAGGAUCACCCAUGUGACGAAAGAAU [Mod of Zala 9 - Jieux - Brourd's Mod of Exclusion 4] (Eterna round: R97, puzzle: Brourd's mod of Exclusion 4) | 35.6 | 15.5 |  |  |  | 

Reference: the supplement of paper PMC9170038
